From US20240166765A1, “INFLAMMATORY DISEASE TREATMENT USING ANTI-TISSUE FACTOR ANTIBODIES” (Iconic Therapeutics LLC, priority 2020, published 2024)

Legend:
[1] = target: h1-107_r (human/rat chimera); test: live cell staining, flow cytometry
[2] = target: r141-194_h (rat/human chimera) (UniProt P42533); test: live cell staining, flow cytometry
[3] = target: h1-107_r (human/rat chimera); test: live cell staining, flow cytometry, HEK293 cells expressing the construct
[4] = target: r141-194_h (rat/human chimera) (UniProt P42533); test: as above

Chain of h1-107_r (human/rat chimera) (chain, as listed by the source mutant limits assumed): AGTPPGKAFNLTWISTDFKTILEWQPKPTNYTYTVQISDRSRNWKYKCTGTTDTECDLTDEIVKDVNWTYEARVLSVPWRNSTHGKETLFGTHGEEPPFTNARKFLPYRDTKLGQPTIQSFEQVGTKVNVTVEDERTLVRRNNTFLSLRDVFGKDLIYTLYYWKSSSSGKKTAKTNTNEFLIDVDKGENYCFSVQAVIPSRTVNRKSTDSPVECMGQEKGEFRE

Percent antibody binding to TF construct relative to hTF [1]: 41%
Percent antibody binding to TF construct relative to hTF [2]: 32%
Percentage antibody binding to TF construct relative to hTF [3]: < 50%
Percentage antibody binding to TF construct relative to hTF [4]: < 50%
Substance: 5G9 (antibody)
